Measurements taken from WO2021105669A1 (dated 2021).

Target: TAFV GP (YP_003815426.1) (Tai Forest Ebola virus, UniProt Q66810 33-676)
Assay: flow cytometry on transiently transfected HEK293 cells

Row | Binder | binding result
1 | 11886 (antibody, V domains shown) VH: QSVEESGGRLVTPGTPLTLTCIVSGFSLSNYYMSWVRQVPGKGLEWIGVIGWSGTSSYASWAKGRFTISKTASTTVDLKITSPTTEDTATYFCARVLYIGGGFNYYDAFDPWGPGTLVTVSS VL: DVVMTQTPASVSEPVGGTVTIKCQASQSIGSNLAWYQQKPGQPPKLLIYAASTLASGVPSRFKGSGSGTEFTLTISDLECADAATYYCQCTYYDSSYVYNNFGGGTEVVVK | binds
2 | 11892 (antibody, V domains shown) VH: QSMEESGGRLVTPGTPLTLTCTVSGFSLSIYSMSWVRQAPGKGLEWIGIIYLGDRAYYASWAKGRFTISKTSSTTVDLKITSPTTEDTATYFCARVAGYAGYGYAFYDAFDPWGPGTLVTVSS VL: DVVMTQTPASVSEPVGGTVTIKCQASQSIGSNLAWYQQKPGQPPKLLIYAASTLASGVPSRFKGSGSGTEFTLTINGVQCDDTATYYCQCTYYANTYVAETFGGGTEVVVK | binds
3 | 11881 (antibody, V domains shown) VH: QSMEESGGRLVTPGTPLTLTCTVSGFSLSIYSMSWVRQAPGKGLEWIGIIYLGDRAYYASWAKGRFTISKTSSTTVDLKITSPTTEDTATYFCARVAGYAGYGYAFYDAFDPWGPGTLVTVSS VL: DVVMTQTPASVSEPVGGTVTIKCQASQSIGSNLAWYQQKPGQPPKLLIYAASTLASGVPSRFKGSGSGTEFTLTINGVQCDDTATYYCQCTYYASTYVAETFGGGTEVVVK | binds
4 | 11889 (antibody, V domains shown) VH: QSLEESGGDLVKPGASLTLTCTASGFSFSSSYWICWVRQAPGKGLEWIACIYAGSSGSTYYASWAKGRFTISKTSSTTVTLQMTSLTAADTATYFCATAYAVSAPFGYTLFKYFELWGPGTLVTVSS VL: AVVLTQTASPVSAPVGGTVTIKCQASQNIYSDLAWYQQKPGQPPKLLIYDTSNLASGVSSRFKGSRSGTEFTLTISDLECADAATYYCQAYYYSSSSGDTTFGGGTEVVVK | binds
